# Data published in patent US20260078148A1.
# Molecular target: CD2
# Test: flow cytometry on primary human T cells at day 5; CD2 detected with the competing clone RPA-2.10
# Sequence of CD2 (receptor chain, as listed by the source limits assumed, form in doubt): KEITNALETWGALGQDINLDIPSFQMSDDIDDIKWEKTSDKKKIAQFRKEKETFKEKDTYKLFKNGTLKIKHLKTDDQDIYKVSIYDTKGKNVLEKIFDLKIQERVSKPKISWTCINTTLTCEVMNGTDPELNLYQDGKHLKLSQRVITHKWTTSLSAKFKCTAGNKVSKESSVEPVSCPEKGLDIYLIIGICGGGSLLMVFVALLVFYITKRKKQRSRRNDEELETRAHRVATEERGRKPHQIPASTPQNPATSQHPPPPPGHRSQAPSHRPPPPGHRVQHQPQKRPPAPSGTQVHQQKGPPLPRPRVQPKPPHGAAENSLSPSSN
substance,measurement,value
CD2 RPA naked (antibody),IC50 (read off the curve),0.08 nM
